Key:
[1] = target: T1, HA-Halo-MC3R (melanocortin-3 receptor) (human, UniProt P41968 1-323, CA-Sulfo646 dye on the Halo tag); assay: single-molecule pull-down (SiMPull); two-colour SiMPull: HA-Halo-tagged bait (CA-Sulfo646) and FLAG-CLIP-tagged prey (BC-DY547) co-expressed in HEK293 cells (300 ng Halo and 600 ng CLIP plasmid), labelled before lysis in 0.5% LMNG/0.05% CHS, bait immobilised by biotinylated anti-HA antibody, co-localisation and photobleaching steps by TIRF; settings: partners not purified
T1 construct: human melanocortin-3 receptor (MC3R); pRK5 construct with an N-terminal signal peptide from rat mGluR2 before the HA and Halo tags; also called ss-HA-Halo-MC3R; source: HEK293, transiently transfected, in lysate (LMNG-CHS); not shown: HA, N-terminal, kept; Halo, N-terminal, kept
T1 sequence (P41968 whole entry): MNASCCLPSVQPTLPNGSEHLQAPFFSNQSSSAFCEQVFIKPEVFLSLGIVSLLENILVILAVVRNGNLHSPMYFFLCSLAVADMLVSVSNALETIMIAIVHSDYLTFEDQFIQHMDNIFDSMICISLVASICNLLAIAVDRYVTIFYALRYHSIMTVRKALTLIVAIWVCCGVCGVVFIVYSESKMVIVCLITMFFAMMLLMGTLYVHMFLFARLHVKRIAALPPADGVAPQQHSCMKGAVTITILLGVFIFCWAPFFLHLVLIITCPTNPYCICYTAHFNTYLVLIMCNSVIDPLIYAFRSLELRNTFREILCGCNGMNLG

[2] = target: the molecule itself; assay: single-molecule pull-down (SiMPull); one-colour SiMPull with photobleaching step analysis: HA-Halo-tagged protein labelled on HEK293 cells with membrane-impermeable CA-Sulfo646, lysed in 0.5% LMNG/0.05% CHS, immobilised by biotinylated anti-HA antibody on a PEG-passivated slide, TIRF imaging

stoichiometry N [1] [MRAP2 per MC3R]	Binder	stoichiometry N [2]
1	FLAG-CLIP-MRAP2 (melanocortin-2 receptor accessory protein-2) (natural protein, human, UniProt Q96G30 1-205, looked up, BC-DY547 dye on the CLIP tag, human melanocortin-2 receptor accessory protein 2 (MRAP2); pRK5 construct with an N-terminal signal peptide from rat mGluR2 before the tags; also called ss-FLAG-CLIP-MRAP2; source: HEK293, transiently transfected, in lysate (LMNG-CHS); not shown: FLAG, N-terminal, kept; CLIP, N-terminal, kept) MSAQRLISNRTSQQSASNSDYTWEYEYYEIGPVSFEGLKAHKYSIVIGFWVGLAVFVIFMFFVLTLLTKTGAPHQDNAESSEKRFRMNSFVSDFGRPLEPDKVFSRQGNEESRSLFHCYINEVERLDRAKACHQTTALDSDVQLQEAIRSSGQPEEELNRLMKFDIPNFVNTDQNYFGEDDLLISEPPIVLETKPLSQTSHKDLD	–
–	mGluR2 (receptor, UniProt P31421 19-872, looked up, metabotropic glutamate receptor 2 (mGluR2), control of the SiMPull photobleaching analysis; also called known dimeric GPCR mGluR2; source: HEK293, transfected, in lysate) EGPAKKVLTLEGDLVLGGLFPVHQKGGPAEECGPVNEHRGIQRLEAMLFALDRINRDPHLLPGVRLGAHILDSCSKDTHALEQALDFVRASLSRGADGSRHICPDGSYATHSDAPTAVTGVIGGSYSDVSIQVANLLRLFQIPQISYASTSAKLSDKSRYDYFARTVPPDFFQAKAMAEILRFFNWTYVSTVASEGDYGETGIEAFELEARARNICVATSEKVGRAMSRAAFEGVVRALLQKPSARVAVLFTRSEDARELLAATQRLNASFTWVASDGWGALESVVAGSERAAEGAITIELASYPISDFASYFQSLDPWNNSRNPWFREFWEERFHCSFRQRDCAAHSLRAVPFEQESKIMFVVNAVYAMAHALHNMHRALCPNTTHLCDAMRPVNGRRLYKDFVLNVKFDAPFRPADTDDEVRFDRFGDGIGRYNIFTYLRAGSGRYRYQKVGYWAEGLTLDTSFIPWASPSAGPLPASRCSEPCLQNEVKSVQPGEVCCWLCIPCQPYEYRLDEFTCADCGLGYWPNASLTGCFELPQEYIRWGDAWAVGPVTIACLGALATLFVLGVFVRHNATPVVKASGRELCYILLGGVFLCYCMTFVFIAKPSTAVCTLRRLGLGTAFSVCYSALLTKTNRIARIFGGAREGAQRPRFISPASQVAICLALISGQLLIVAAWLVVEAPGTGKETAPERREVVTLRCNHRDASMLGSLAYNVLLIALCTLYAFKTRKCPENFNEAKFIGFTMYTTCIIWLAFLPIFYVTSSDYRVQTTTMCVSVSLSGSVVLGCLFAPKLHIILFQPQKNVVSHRAPTSRFGSAAPRASANLGQGSGSQFVPTVCNGREVVDSTTSSL	2

Reference: publication doi:10.1101/2024.11.06.622243, “The MRAP2 accessory protein directly interacts with melanocortin-3 receptor to enhance signaling” (bioRxiv, 2024)
